Test results as given in patent US20250320281A1.

Key:
[1] = biological target: HIV-1 Env of isolate ZM233 (clade C pseudovirus) (HIV-1); test: cell-based or functional assay
[2] = biological target: HIV-1 Env of isolate ZM249 (clade C pseudovirus) (HIV-1); test: cell-based or functional assay
[3] = biological target: HIV-1 93UG077 Env (pseudovirus) (HIV-1 isolate 93UG077 (clade A)); test: cell-based or functional assay
[4] = biological target: HIV-1 MGRM-A-010 Env (pseudovirus) (HIV-1 isolate MGRM-A-010 (clade A)); test: cell-based or functional assay
[5] = biological target: HIV-1 MGRM-D-018 Env (pseudovirus) (HIV-1 isolate MGRM-D-018 (clade D)); test: cell-based or functional assay
[6] = biological target: Endo H treated JR-FL gp120 (HIV-1); test: ELISA, antigen-coated wells
[7] = biological target: HIV-1 Env of isolate MG RM-D-028 (HIV-1); test: cell-based or functional assay
[8] = biological target: HIV-1 Env of pseudovirus MGRM-AE-008 (subtype AE) (HIV-1); test: cell-based or functional assay
[9] = biological target: HIV-1 Env of isolate MG RM-D-018 (clade D), on pseudovirus (HIV-1); test: cell-based or functional assay
[10] = biological target: HIV-1 Env of isolate MG RM-D-021 (clade D), on pseudovirus (HIV-1); test: cell-based or functional assay
[11] = biological target: HIV-1 Env of pseudovirus MGRM-A-001 (subtype A) (HIV-1); test: cell-based or functional assay
HIV-1 APV6 Env (HIV-1) = test: cell-based or functional assay
[12] = biological target: HIV-1 92UG024 envelope glycoprotein (Env) on pseudovirus (HIV-1 isolate 92UG024 (clade D)); test: cell-based or functional assay
[13] = biological target: HIV-1 JRCSF envelope glycoprotein (Env) on pseudovirus (HIV-1 isolate JRCSF (clade B)) (UniProt P20871); test: cell-based or functional assay
[14] = biological target: HIV-1 MGRM-C-026 envelope glycoprotein (Env) on pseudovirus (HIV-1 isolate MGRM-C-026 (clade C)); test: cell-based or functional assay
[15] = biological target: HIV-1 NL43 envelope glycoprotein (Env) on pseudovirus (HIV-1 isolate NL43 (clade B)); test: cell-based or functional assay

Sequence of 1443_C16 (PG16) (TCN-116) (antibody) (VH): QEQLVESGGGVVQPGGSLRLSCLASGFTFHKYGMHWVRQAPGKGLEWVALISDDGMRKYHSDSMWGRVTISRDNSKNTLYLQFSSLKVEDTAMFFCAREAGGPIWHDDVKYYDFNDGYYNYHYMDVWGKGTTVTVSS
Sequence of 1443_C16 (PG16) (TCN-116) (antibody) (VL): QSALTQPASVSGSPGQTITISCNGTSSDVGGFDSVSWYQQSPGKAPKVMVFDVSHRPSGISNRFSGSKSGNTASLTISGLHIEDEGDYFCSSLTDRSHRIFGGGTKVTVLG

**Q.** What does the source list for 1443_C16 (PG16) (TCN-116) (antibody)?
**A.** IC50 (neutralization, TZM-bl pseudovirus assay) [1]: < 0.01 mg/L; IC50 (neutralization, TZM-bl pseudovirus assay) [2]: < 0.01 mg/L

**Q.** Which Neutralization by PGT-125, IC50 [3] does the source give for 5123_A06 (PGT-125) (antibody) here?
**A.** 0.0262 mg/L

**Q.** What about the Neutralization by PGT-125, IC80 [3] of the same substance?
**A.** 0.0926 mg/L

**Q.** What about the Neutralization by PGT-125, IC90 [3] of the same substance?
**A.** 0.206 mg/L

**Q.** What about the Neutralization by PGT-125, IC95 [3] of the same substance?
**A.** 0.487 mg/L

**Q.** And the Neutralization by PGT-125, IC50 [4]?
**A.** 0.0055 mg/L

**Q.** What about the Neutralization by PGT-125, IC80 [4] of the same substance?
**A.** 0.024 mg/L

**Q.** And the Neutralization by PGT-125, IC90 [4]?
**A.** 0.0575 mg/L

**Q.** And the Neutralization by PGT-125, IC95 [4]?
**A.** 0.131 mg/L

**Q.** And the Neutralization by PGT-125, IC50 [5]?
**A.** 0.0382 mg/L

**Q.** What about the Neutralization by PGT-125, IC80 [5] of the same substance?
**A.** 0.144 mg/L

**Q.** And the Neutralization by PGT-125, IC90 [5]?
**A.** 0.339 mg/L

**Q.** And the Neutralization by PGT-125, IC95 [5]?
**A.** 0.892 mg/L

**Q.** With 4838_L06 (PGT-121) (antibody) as the substance, how does the EC50 [6] read?
**A.** > 10 mg/L

**Q.** Which IC50 [7] does the source give for VRC01 (antibody) here?
**A.** 0.377 mg/L

**Q.** And the IC50, pseudovirus neutralization [8]?
**A.** 1.72 mg/L

**Q.** What does the source list for PGV04 (antibody)?
**A.** IC50 (µg/mL), pseudovirus neutralization [9]: 17.5 µg/mL; IC50 (µg/mL), pseudovirus neutralization [10]: > 50 µg/mL; IC50, pseudovirus neutralization [11]: 6.78 mg/L

**Q.** What does the source list for 4877_D15 (PGT-122) (antibody)?
**A.** Neutralization by PGT-122, IC50 (HIV-1 APV6 Env (HIV-1)): 0.0851 mg/L; Neutralization by PGT-122, IC80 (HIV-1 APV6 Env (HIV-1)): 0.351 mg/L; Neutralization by PGT-122, IC90 (HIV-1 APV6 Env (HIV-1)): 0.779 mg/L; Neutralization by PGT-122, IC95 (HIV-1 APV6 Env (HIV-1)): 1.55 mg/L

**Q.** With 1496_C09 (PG9) (TCN-109) (antibody) as the substance, how does the neutralization IC50 [12] read?
**A.** 1.91 mg/L

**Q.** And the neutralization IC50 [13]?
**A.** 0.0048 mg/L

**Q.** And the neutralization IC80 [13]?
**A.** 0.0181 mg/L

**Q.** And the neutralization IC90 [13]?
**A.** 0.0391 mg/L

**Q.** What about the neutralization IC95 [13] of the same substance?
**A.** 0.0798 mg/L

**Q.** What about the neutralization IC50 [14] of the same substance?
**A.** 0.113 mg/L

**Q.** What about the neutralization IC50 [15] of the same substance?
**A.** 0.687 mg/L
